Results on one substance are retold here after paper PMC3471833.

The assay addresses human complement C1 esterase inhibitor (human) (UniProt P05155).
Sequence of UniProt P05155 (P05155 23-500): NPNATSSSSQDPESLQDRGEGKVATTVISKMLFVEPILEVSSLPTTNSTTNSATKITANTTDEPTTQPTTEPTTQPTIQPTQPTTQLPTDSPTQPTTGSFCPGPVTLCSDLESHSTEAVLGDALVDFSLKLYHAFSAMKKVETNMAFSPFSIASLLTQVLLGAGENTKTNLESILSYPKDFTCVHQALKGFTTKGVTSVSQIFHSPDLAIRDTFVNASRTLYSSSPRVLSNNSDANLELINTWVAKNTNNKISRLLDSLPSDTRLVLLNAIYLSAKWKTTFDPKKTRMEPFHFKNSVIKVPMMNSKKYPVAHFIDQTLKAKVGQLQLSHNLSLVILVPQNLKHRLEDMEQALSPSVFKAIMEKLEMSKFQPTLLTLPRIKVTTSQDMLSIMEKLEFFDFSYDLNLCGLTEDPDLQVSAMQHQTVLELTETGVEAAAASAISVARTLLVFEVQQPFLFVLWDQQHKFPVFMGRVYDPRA

With Activated C1s (enzyme), the percentage of dead E. coli BL21 (Live/Dead staining) after antibody 2E4 and human complement plasma treated with OSCS (25.5% without GAG, 26.5% with CSA) stood at 8%.
